{
  "source": "patent US20230103407A1",
  "molecular_target": "mannose receptor (UniProt Q61830)",
  "sequence (Q61830 20-1456 limits assumed)": "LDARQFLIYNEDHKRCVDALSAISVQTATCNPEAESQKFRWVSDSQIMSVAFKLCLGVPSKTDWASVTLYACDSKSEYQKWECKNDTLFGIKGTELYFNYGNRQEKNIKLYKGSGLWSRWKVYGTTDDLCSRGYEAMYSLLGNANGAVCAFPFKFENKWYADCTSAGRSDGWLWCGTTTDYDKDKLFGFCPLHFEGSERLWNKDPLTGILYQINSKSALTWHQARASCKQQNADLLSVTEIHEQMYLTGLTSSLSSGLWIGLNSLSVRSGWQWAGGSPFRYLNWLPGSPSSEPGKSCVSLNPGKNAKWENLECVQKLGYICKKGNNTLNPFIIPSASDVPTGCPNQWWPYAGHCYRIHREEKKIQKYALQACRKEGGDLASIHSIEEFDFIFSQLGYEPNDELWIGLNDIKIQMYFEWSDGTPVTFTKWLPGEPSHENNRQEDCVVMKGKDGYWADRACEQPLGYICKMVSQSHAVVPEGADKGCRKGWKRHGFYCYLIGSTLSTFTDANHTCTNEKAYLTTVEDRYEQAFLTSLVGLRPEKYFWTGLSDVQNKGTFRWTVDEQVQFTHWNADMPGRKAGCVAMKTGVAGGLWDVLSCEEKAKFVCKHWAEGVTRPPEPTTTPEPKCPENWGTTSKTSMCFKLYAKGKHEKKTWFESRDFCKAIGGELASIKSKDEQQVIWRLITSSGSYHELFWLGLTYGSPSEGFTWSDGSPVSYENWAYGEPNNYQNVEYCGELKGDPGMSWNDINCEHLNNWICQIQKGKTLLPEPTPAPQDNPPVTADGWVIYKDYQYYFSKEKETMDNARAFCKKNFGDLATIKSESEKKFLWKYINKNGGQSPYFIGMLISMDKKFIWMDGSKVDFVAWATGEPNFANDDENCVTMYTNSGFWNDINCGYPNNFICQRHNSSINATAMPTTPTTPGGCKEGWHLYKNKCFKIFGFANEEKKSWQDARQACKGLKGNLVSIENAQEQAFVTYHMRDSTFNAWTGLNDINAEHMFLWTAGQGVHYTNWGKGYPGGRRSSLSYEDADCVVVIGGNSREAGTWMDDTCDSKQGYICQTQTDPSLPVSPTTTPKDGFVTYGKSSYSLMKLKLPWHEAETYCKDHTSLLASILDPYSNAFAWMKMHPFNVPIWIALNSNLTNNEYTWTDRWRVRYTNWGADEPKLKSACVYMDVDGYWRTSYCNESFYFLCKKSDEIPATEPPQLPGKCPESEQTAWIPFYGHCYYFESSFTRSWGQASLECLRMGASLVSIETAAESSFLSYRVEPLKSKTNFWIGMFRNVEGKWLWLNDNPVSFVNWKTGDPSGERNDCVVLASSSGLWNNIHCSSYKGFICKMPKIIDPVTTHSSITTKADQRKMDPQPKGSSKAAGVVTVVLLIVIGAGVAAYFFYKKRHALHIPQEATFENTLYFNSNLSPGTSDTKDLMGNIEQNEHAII",
  "assay": "cell-based or functional assay",
  "data": [
    {"substance": "SapC-DOPS-GCase nanovesicles", "values": [
      {"measurement": "GCase uptake (net GCase activity) blocked by mannan in J774E macrophages or Gba1-/- neurons", "value": 20, "unit": "%"}
    ]}
  ]
}
